Source: FireProtDB (doi:10.1016/s0022-2836(03)00043-3)

Settings: Homo sapiens; pH 8.5; 20 °C; Urea; CD; Tris 10 mM; reversible: yes; whole UniProt chain shown

B1: Cyclin-dependent kinase inhibitor 2A wild type, P42771 (protein)
chain: MEPAAGSSMEPSADWLATAAARGRVEEVRALLEAGALPNAPNSYGRRPIQVMMMGSARVAELLLLHGAEPNCADPATLTRPVHDAAREGFLDTLVVLHRAGARLDVRDAWGRLPVDLAEELGHRDVARYLRAAAGGTRGSNHARIDAAEGPSDIPD
denaturant m value: 1.72 kcal/mol/M | denaturant midpoint (higher = more stable): 2 M | unfolding free energy: 3.34 kcal/mol
